Measured values from patent US20110300138A1 (published 2011).
Each block holds one molecule with its values, some of them ahead of it.

How the values were obtained:
[1] = molecular target: TSHR (thyroid stimulating hormone receptor), full length human (human) (UniProt P16473); assay: competitor ^125I-K1-70 IgG, TSHR coated tubes; 100 µg/mL in assay buffer
[2] = molecular target: TSH receptor (TSHR), full length human, coated on tubes (human) (UniProt P16473); assay: inhibition of 125I-K1-18 IgG binding to TSHR coated tubes; competitor 125I-K1-18 IgG; sample at 10 µg/mL in HBD serum
[3] = molecular target: TSH receptor (TSHR), full length human, coated on tubes (human) (UniProt P16473); assay: inhibition of 125I-K1-18 IgG binding to TSHR coated tubes; competitor 125I-K1-18 IgG; sample at 100 µg/mL in HBD serum
[4] = molecular target: TSH receptor (full length human TSHR) (human) (UniProt P16473); assay: competition ELISA: inhibition of M22 Fab-peroxidase (competitor) binding to TSHR coated wells; test sample at 0.1 µg/mL diluted in assay buffer
[5] = molecular target: TSHR (full length) coated on tubes (human) (UniProt P16473); assay: inhibition of 125I-K1-18 Fab (competitor) binding to TSHR coated tubes; test sample 1 µg/mL in assay buffer
[6] = molecular target: TSH receptor (full length human TSHR) (human) (UniProt P16473); assay: competition ELISA: inhibition of M22 Fab-peroxidase (competitor) binding to TSHR coated wells; test sample at 0.1 µg/mL diluted in HBD serum pool
[7] = molecular target: TSH receptor (TSHR), full length human, coated on tubes (human) (UniProt P16473); assay: inhibition of 125I-K1-18 IgG binding to TSHR coated tubes; competitor 125I-K1-18 IgG; sample at 0.01 µg/mL in HBD serum
[8] = molecular target: thyroid stimulating hormone receptor (TSHR), full length human TSHR (human) (UniProt P16473); assay: TSH-biotin competition ELISA, TSHR coated wells; negative control, 0.1 µg/mL in HBD serum
[9] = molecular target: human TSH receptor (full length) coated on ELISA plate wells (human) (UniProt P16473); assay: TSH-biotin binding inhibition ELISA, TSHR coated wells; 1 µg/mL in HBD serum pool; negative control MAb
[10] = molecular target: TSHR (full length) coated on tubes (human) (UniProt P16473); assay: inhibition of 125I-K1-18 Fab (competitor) binding to TSHR coated tubes; negative control 1 µg/mL in HBD serum
[11] = molecular target: TSH receptor (TSHR) coated on tubes (human) (UniProt P16473); assay: inhibition of 125I-K1-70 IgG binding to TSHR coated tubes; negative control 0.1 µg/mL in HBD serum pool
[12] = molecular target: human TSH receptor (full length) coated on ELISA plate wells (human) (UniProt P16473); assay: TSH-biotin binding inhibition ELISA, TSHR coated wells; 0.1 µg/mL in HBD serum pool; negative control MAb
[13] = molecular target: thyroid stimulating hormone receptor (TSHR), full length human TSHR (human) (UniProt P16473); assay: TSH-biotin competition ELISA, TSHR coated wells; negative control, 10 µg/mL in HBD serum
[14] = molecular target: TSH receptor (TSHR), full length human, coated on tubes (human) (UniProt P16473); assay: inhibition of 125I-TSH binding to TSHR coated tubes; 100 µg/mL, diluted in assay buffer
[15] = molecular target: human thyroid stimulating hormone receptor (TSHR), full length (human) (UniProt P16473); assay: 125I-K1-70 Fab (competitor) binding to TSHR coated tubes; negative control MAb 10 µg/mL in HBD serum
[16] = molecular target: human thyroid stimulating hormone receptor (TSHR), full length (human) (UniProt P16473); assay: 125I-K1-70 Fab (competitor) binding to TSHR coated tubes; negative control MAb 0.01 µg/mL in HBD serum
[17] = molecular target: TSH receptor (TSHR), full length human, coated on tubes (human) (UniProt P16473); assay: inhibition of 125I-K1-18 IgG binding to TSHR coated tubes; competitor 125I-K1-18 IgG; negative control sample at 0.1 µg/mL in assay buffer
[18] = molecular target: TSH receptor (full length human TSHR) (human) (UniProt P16473); assay: competition ELISA: inhibition of M22 Fab-peroxidase (competitor) binding to TSHR coated wells; negative control at 0.01 µg/mL diluted in assay buffer
[19] = molecular target: TSH receptor (TSHR) coated on tubes (human) (UniProt P16473); assay: inhibition of 125I-K1-70 IgG binding to TSHR coated tubes; sample 0.01 µg/mL in assay buffer
[20] = molecular target: TSH receptor (TSHR), full length human, coated on tubes (human) (UniProt P16473); assay: inhibition of 125I-TSH binding to TSHR coated tubes; 0.001 µg/mL, diluted in assay buffer
[21] = molecular target: thyroid stimulating hormone receptor (full length human TSHR) (human) (UniProt P16473); assay: ELISA: inhibition of M22 Fab-peroxidase (competitor) binding to TSHR coated wells; 10 µg/mL, diluted in assay buffer
[22] = molecular target: TSH receptor (TSHR) coated on tubes (human) (UniProt P16473); assay: inhibition of 125I-K1-70 IgG binding to TSHR coated tubes; sample 0.01 µg/mL in HBD serum pool
[23] = molecular target: thyroid stimulating hormone receptor (full length human TSHR) (human) (UniProt P16473); assay: ELISA, inhibition of TSH-biotin binding to TSHR coated wells; 1 µg/mL, diluted in assay buffer
[24] = molecular target: thyroid stimulating hormone receptor (TSHR), full length, coated on tubes (human) (UniProt P16473); assay: inhibition of 125I-TSH binding, TSHR coated tubes; antibody 1 µg/mL in assay buffer
[25] = molecular target: thyroid stimulating hormone receptor (full length human TSHR) (human) (UniProt P16473); assay: ELISA: inhibition of M22 Fab-peroxidase (competitor) binding to TSHR coated wells; 0.01 µg/mL, diluted in HBD serum pool
[26] = molecular target: TSH receptor (TSHR), full length human, coated on tubes (human) (UniProt P16473); assay: inhibition of 125I-TSH binding to TSHR coated tubes; 1 µg/mL, diluted in HBD serum pool

Inhibition of binding (%) [1]: 61.4%
Inhibition of binding (%) [2]: 68.1%
Inhibition of binding (%) [3]: 68.7%
Inhibition of binding (%) [4]: 35.1%
Inhibition of binding (%) [5]: 66.5%
Inhibition of binding (%) [6]: 24.1%
Inhibition of binding (%) [7]: 5.3%
Molecule: 9D33 IgG (antibody)

Inhibition of binding (%) [8]: -1.2%
% inhibition of TSH-biotin binding [9]: 8%
Inhibition of binding (%) [10]: -3.1%
Inhibition of binding (%) [11]: 9.4%
% inhibition of TSH-biotin binding [12]: 8.6%
Inhibition of binding (%) [13]: -1.6%
Inhibition of binding (%) [14]: 22.4%
Inhibition of binding (%) [15]: -5.7%
Inhibition of binding (%) [16]: -5.3%
Inhibition of binding (%) [17]: -4.8%
Inhibition of binding (%) [18]: 2.2%
Molecule: 5B3 IgG (antibody)

Inhibition of binding (%) [19]: 4.5%
Inhibition of binding (%) [20]: -11.2%
Inhibition of binding (%) [21]: 13.2%
Inhibition of binding (%) [22]: 2.8%
Inhibition of binding (%) [23]: 31.4%
Inhibition of binding (%) [24]: 23.5%
Inhibition of binding (%) [25]: 0.9%
Inhibition of binding (%) [26]: 24.8%
B1: 5C9 IgG (antibody, from another filing, V domains shown)
VH: EVQLVESGGGLIQPGGSLRLSCAASGFTVSSNYMSWVRQAPGKGLEWVSVTYSGGSTSYADSVKGRFTISRDNSKNTLYLQMNSLRAEDTAVYYCARGGRYCSSISCYARSGCDYWGQGTLVTVSS
VL: AIQMTQSPSSLSASVGDRVTITCRASQSISNYLNWYQQKPGKAPKLLIYAASSLQSGVPSRFSGSGSGTDFTLTISSLQPEDFATYYCQQSYSSPSTTFGQGTKLEIK
